Source: patent publication US20250230234A1

How the values were obtained:
[1] = target: human GPRC5D (full length, on cells) (human) (UniProt Q9NZD1); assay: flow cytometry on FreeStyle 293-F cells expressing hGPRC5D; negative control
[2] = target: human GPRC5D-human GPRC5A chimera (Nterm) (human) (UniProt Q9NZD1); assay: flow cytometry on FreeStyle 293-F cells expressing the chimera (Nter); negative control
[3] = target: human GPRC5D-human GPRC5A chimera (85-93) (human) (UniProt Q9NZD1); assay: flow cytometry on FreeStyle 293-F cells expressing the chimera (aa85-aa93); negative control
[4] = target: human GPRC5D-human GPRC5A chimera (145-167) (human) (UniProt Q9NZD1); assay: flow cytometry on FreeStyle 293-F cells expressing the chimera (aa145-aa167); negative control
[5] = target: human GPRC5D-human GPRC5A chimera (226-239) (human) (UniProt Q9NZD1); assay: flow cytometry on FreeStyle 293-F cells expressing the chimera (aa226-aa239); negative control
Sequence of human GPRC5D-human GPRC5A chimera (226-239) (human) (Q9NZD1 other isoform, or with tags, fused parts or gaps mutant): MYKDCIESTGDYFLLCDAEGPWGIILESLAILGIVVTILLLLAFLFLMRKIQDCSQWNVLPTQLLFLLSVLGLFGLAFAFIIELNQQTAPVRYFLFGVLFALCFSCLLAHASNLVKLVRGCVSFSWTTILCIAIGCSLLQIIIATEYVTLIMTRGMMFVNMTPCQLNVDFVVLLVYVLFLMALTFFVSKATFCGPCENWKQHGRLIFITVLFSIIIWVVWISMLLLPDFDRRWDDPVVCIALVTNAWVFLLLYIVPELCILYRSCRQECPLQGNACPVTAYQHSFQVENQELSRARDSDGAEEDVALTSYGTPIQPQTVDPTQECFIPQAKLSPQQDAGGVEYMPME

Sequence of human GPRC5D-human GPRC5A chimera (145-167) (human) (Q9NZD1 other isoform, or with tags, fused parts or gaps mutant): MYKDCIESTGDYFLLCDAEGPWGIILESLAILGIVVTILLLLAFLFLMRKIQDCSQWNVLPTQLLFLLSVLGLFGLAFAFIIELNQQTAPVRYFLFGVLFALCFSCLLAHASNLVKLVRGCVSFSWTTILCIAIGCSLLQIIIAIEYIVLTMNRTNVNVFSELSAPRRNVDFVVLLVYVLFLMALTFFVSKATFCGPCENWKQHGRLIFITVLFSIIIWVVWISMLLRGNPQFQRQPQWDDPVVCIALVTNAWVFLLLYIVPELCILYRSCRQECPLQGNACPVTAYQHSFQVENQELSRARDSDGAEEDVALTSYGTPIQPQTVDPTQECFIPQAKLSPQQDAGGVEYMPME
Sequence of human GPRC5D-human GPRC5A chimera (Nterm) (human) (Q9NZD1 other isoform, or with tags, fused parts or gaps mutant): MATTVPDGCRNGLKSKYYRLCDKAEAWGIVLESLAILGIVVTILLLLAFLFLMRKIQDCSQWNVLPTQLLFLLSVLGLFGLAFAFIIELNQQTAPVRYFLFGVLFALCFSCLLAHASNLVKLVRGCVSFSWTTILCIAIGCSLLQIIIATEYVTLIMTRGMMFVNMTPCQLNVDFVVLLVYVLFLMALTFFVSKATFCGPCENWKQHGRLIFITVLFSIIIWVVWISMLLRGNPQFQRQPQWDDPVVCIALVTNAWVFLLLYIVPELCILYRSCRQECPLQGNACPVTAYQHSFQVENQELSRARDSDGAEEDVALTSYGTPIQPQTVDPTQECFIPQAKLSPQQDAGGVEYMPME
Sequence of human GPRC5D (full length, on cells) (human) (Q9NZD1 whole entry): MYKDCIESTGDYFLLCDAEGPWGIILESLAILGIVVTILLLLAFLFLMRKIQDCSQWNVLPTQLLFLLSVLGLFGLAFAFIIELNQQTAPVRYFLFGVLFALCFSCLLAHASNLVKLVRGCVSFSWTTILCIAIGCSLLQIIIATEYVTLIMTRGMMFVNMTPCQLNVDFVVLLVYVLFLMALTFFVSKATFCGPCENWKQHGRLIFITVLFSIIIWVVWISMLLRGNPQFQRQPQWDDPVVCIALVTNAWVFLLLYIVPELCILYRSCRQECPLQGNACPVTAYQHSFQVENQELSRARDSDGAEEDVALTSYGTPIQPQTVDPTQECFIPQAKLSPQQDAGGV
Sequence of human GPRC5D-human GPRC5A chimera (85-93) (human) (Q9NZD1 other isoform, or with tags, fused parts or gaps mutant): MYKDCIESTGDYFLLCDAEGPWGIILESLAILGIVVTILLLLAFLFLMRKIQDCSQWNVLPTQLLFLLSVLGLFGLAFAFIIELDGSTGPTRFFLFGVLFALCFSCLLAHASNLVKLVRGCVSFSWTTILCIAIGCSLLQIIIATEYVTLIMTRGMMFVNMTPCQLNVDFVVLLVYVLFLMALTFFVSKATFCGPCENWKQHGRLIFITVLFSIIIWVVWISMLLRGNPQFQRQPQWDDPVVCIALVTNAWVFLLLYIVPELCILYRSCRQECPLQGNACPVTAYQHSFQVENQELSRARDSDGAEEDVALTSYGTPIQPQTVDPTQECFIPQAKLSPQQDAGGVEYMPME

MFI [1]: 27400
MFI [2]: 24700
MFI [3]: 29700
MFI [4]: 32500
MFI [5]: 29800
Substance: Isotype control IgG1 in wildtype format (antibody to an irrelevant small molecule target)
